# Test results: patent publication US20100111851A1 (UNIVERSITY OF TOKYO, published 2010)
# T1: whole human PRG-3 with a C-terminal V5 tag, inducibly expressed on PRG-3/293T-Rex cells (human, UniProt Q8TBJ4 1-325)
# T1 construct: Membrane protein with 6 transmembrane regions; also called PRG-3/293 cells; PRG3+/293 cells; not shown: V5 tag inserted at the C-terminus
# T1 sequence: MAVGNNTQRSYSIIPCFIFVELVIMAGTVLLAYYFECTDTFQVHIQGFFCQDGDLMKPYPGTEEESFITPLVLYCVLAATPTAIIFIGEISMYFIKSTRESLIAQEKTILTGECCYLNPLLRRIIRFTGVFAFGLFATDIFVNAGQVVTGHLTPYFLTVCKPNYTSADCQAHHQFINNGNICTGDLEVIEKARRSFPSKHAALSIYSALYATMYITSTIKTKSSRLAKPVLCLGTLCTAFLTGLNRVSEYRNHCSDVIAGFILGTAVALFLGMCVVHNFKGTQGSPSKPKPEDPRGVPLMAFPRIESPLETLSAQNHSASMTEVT
# T2: human PRG-3 (without tag) on cells (human, UniProt Q8TBJ4 1-325)
# T2 construct: also called PRG-3 protein; PRG-3/BaF3
# T2 sequence: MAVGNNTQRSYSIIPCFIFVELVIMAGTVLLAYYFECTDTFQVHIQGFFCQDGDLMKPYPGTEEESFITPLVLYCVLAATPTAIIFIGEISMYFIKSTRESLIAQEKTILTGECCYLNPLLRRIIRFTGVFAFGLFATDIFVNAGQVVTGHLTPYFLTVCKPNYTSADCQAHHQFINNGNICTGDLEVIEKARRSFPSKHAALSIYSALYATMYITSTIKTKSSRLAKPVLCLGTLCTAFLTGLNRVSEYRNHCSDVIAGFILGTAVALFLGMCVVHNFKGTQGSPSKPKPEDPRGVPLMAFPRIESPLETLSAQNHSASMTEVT
# How the values were obtained:
# [1] = target: T1, whole human PRG-3 with a C-terminal V5 …; test: flow cytometry, hybridoma supernatant on PRG-3-induced against non-induced 293 cells
# Procedure: The cell line expressing human PRG-3 suspended in FACS buffer (2% FBS/PBS) was diluted to 1×10⁶ cells/mL using FACS buffer, and aliquoted at 50 μL/well into a Falcon 353910 round-bottom 96-well plate. Hybridoma culture supernatant diluted to a suitable concentration was added to the wells containing the cells and reacted for 60 min on ice. Next, the cells were rinsed once with FACS buffer. Goat F(ab′)₂ fragment anti-mouse IgG (H+L)-FITC (Beckman Coulter) was added to the wells containing the cells as a secondary antibody, and reacted for 30 min on ice. The supernatant was removed by centrifugation after the reaction, and the cells suspended in 100 μL of FACS buffer were subjected to flow cytometry. A FACS Calibur (Becton Dickinson) was used for the flow cytometry. A gate for the viable cell population was established with a forward scatter-side scatter dot blot, an FL1 histogram was made of the cells contained in the population, and binding activity thereof was evaluated.
# [2] = target: T2, human PRG-3 (without tag) on cells; test: flow cytometry, mixture of the two antibodies on Ba/F3 cells transfected with pMCN-PRG-3
# Procedure: A Ba/F3 cell transformant line was established by gene transfer of the pMCN-PRG-3 expression vector constructed in example 2 into Ba/F3 cells, which is a murine pro B cell line, by electroporation under conditions of 0.33 kV and 950 μF. The Ba/F3 cells are IL-3 dependent cells, and they were cultured in RPMI-1640/10% FBS/penicillin-streptomycin containing 1 ng/mL IL-3. The cells that underwent gene transfer were selected by RPMI-1640/10% FBS/penicillin-streptomycin containing IL-3 and 500 μg/mL Geneticin® (Invitrogen). Cells expressing PRG-3 from the Geneticin®-resistant lines were selected by flow cytometry. […] Lines O-A5, O-D3, and O-F5 were established as Ba/F3 cell lines expressing PRG-3 (FIG. 6). Additionally, line O-F5 was cloned by the limiting dilution method and the OF5-G8 line with a high level of expression was also obtained.
binding result [1],binding result [2],Binder
binds,binds,"anti-PRG-3 monoclonal antibody 4F1 (antibody, mouse IgG2b, kappa, V domains shown, also called MR4F1) VH: QVQLQQPGAELVKPGASVKLSCKASGYTFTSYWMNWVKQRPGRGLEWIGKIHPSDSETHYNQKFKSKATLTVDKSSSTAYIQLNSLTSEDSAVYYCTRGYNNYLDYWGQGTTLTVSS VL: DIVLTQSPASLAVSLGQSVTISCRASESVEYYGTSLMQWYQQKPGQPPKLLIYGASNVESGVPARFSGSGSWTDFSLNIHPVEEDDIAIYFCQQSRKVPSTFGGGTKLEIKR"
binds,binds,"anti-PRG-3 monoclonal antibody 4F12 (antibody, mouse IgG2a, kappa, V domains shown, Tested as hybridoma culture supernatant and as protein G purified antibody; also called MR4F12) VH: QVQLQQPGAELVKPGASVKLSCKASGYTFTSYWMNWVKQRPGRGLEWIGKIHPSDSETHYNQKFKSKATLTVDKSSSTAYIQLSSLTSEDSAVYYCARGYSNYLDYWGQGTTLTVSS VL: DIVLTQSPASLAVSLGQRVTISCRASESVEYYGTSLMQWYQQKPGQPPKLLIYGASNVESGVPARFSGSGSGTDFSLNIHPVEEDDIAMYFCQQSRKVPSTFGGGTKLEIKR"
